The experiment has as its target hsp7c_human HSPA8 (UniProt P11142).

As to “L-lactate dehydrogenase A chain (Homo sapiens) (from UniProt P00338) K5Q”, the “effect of a mutation on the interaction” value is given as “increasing interaction”.

Values taken from IntAct's records for PubMed 23523103.
